These results are taken from doi:10.1101/2023.12.13.571598.

This test addresses P301S tauRD-mEOS3.2 (human). The test is described as follows: FRET or BRET.

For the substance “P301S tauRD-mEOS3.2 (domain or fragment)”, the percent FRET-positive cells (100 nM recombinant tau fibrils) is 74%.
